Laboratory results from patent publication US20100158968A1 (PURDUE RESEARCH FOUNDATION, published 2010).
Non-standard residues stand in square brackets, D forms with d. No end group written: not given here.

Assays:
Assay in all cases: cell-based or functional assay
[1] = molecular target: T1, mitogen-activated protein kinase-activated protein kinase 2 (human MK2) (human, UniProt P49137 46-400, limits assumed)
[2] = molecular target: MK3 (mitogen-activated protein kinase-activated protein kinase 3) (human, UniProt Q16644 1-382, limits assumed)
[3] = molecular target: ROCK-I (h) (Rho-associated serine/threonine kinase) (human, UniProt Q13464 17-535, limits assumed)
[4] = molecular target: T1, mitogen-activated protein …; remark: listed apart in the source
[5] = molecular target: MLCK (h) (myosin light chain kinase) (human)
[6] = molecular target: T2, PRAK (h) (p38 regulated/activated protein kinase) (human, UniProt Q8IW41 1-473, limits assumed)
T2 sequence (looked up): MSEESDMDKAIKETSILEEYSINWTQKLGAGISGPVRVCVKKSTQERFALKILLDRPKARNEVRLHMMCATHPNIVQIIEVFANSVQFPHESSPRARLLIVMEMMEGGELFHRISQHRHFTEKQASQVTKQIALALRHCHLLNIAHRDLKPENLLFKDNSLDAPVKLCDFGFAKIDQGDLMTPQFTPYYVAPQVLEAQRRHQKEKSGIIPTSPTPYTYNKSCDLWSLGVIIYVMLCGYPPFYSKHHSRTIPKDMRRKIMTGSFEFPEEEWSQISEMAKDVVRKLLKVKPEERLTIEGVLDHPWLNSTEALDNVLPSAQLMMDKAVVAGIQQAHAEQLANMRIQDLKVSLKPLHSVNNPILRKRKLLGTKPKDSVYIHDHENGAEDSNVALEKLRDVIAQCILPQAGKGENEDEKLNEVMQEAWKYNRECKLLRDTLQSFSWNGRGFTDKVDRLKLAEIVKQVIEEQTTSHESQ

[7] = molecular target: CaMKI (h) (calcium/calmodulin-dependent protein kinase) (human, UniProt Q14012 1-370, limits assumed)
[8] = molecular target: T3, IRAK4 (h) (IL-1 receptor (IL-1R)-associated kinase) (human, UniProt Q9NWZ3 1-460, limits assumed)
T3 sequence (looked up): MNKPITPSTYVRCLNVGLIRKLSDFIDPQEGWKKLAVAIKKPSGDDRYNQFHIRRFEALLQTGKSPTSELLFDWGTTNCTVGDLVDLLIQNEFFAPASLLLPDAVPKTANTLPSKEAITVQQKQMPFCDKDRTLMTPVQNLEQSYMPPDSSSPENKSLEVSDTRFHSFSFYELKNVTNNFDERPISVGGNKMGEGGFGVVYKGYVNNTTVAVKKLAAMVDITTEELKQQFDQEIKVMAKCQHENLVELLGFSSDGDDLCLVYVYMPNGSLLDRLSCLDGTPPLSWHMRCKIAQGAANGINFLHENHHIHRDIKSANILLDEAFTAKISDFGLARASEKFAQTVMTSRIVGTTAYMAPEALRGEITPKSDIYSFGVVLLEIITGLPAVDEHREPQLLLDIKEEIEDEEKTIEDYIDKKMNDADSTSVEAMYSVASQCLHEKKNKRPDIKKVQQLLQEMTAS

[9] = molecular target: PKBβ (h) (protein kinase B) (human, UniProt P31751 120-481, limits assumed)
SAPK2a (h) (p38α) = SAPK2a (h) (p38α) (human, UniProt Q16539 1-360)
Chain of SAPK2a (h) (p38α) (Q16539 whole entry): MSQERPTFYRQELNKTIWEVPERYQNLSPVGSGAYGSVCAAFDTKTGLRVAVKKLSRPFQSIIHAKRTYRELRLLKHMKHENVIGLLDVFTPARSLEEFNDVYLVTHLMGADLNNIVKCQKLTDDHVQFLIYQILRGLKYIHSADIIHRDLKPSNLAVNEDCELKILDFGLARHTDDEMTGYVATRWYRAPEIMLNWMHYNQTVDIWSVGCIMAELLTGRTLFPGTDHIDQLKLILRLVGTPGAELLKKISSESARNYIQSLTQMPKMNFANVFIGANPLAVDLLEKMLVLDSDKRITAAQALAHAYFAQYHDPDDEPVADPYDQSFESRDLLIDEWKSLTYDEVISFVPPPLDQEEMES

Chain of ROCK-I (h) (Rho-associated serine/threonine kinase) (Q13464 17-535 limits assumed): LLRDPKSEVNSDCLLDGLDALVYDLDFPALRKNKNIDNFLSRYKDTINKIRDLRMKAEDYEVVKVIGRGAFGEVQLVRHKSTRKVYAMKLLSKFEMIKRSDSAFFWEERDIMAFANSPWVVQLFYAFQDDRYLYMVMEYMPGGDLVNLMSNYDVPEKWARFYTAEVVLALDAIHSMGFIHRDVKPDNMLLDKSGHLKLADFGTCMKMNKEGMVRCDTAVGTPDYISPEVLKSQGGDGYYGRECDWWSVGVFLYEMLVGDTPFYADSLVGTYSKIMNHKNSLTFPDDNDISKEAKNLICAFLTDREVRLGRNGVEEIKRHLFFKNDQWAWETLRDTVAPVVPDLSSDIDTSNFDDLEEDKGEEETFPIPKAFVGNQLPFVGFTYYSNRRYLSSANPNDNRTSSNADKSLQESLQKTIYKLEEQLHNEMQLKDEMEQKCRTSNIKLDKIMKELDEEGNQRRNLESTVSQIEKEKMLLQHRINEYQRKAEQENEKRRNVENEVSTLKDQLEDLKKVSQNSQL
T1 sequence (P49137 46-400 limits assumed): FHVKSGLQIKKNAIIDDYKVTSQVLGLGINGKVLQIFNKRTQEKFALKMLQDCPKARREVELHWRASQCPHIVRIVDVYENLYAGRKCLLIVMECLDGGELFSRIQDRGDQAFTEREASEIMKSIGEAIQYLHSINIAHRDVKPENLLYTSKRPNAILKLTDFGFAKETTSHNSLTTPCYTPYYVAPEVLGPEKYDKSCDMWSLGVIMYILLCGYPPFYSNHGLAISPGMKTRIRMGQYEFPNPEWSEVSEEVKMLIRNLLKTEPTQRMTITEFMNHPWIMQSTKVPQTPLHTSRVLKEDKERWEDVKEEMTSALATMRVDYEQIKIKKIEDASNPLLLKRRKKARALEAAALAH
Chain of MK3 (mitogen-activated protein kinase-activated protein kinase 3) (Q16644 whole entry): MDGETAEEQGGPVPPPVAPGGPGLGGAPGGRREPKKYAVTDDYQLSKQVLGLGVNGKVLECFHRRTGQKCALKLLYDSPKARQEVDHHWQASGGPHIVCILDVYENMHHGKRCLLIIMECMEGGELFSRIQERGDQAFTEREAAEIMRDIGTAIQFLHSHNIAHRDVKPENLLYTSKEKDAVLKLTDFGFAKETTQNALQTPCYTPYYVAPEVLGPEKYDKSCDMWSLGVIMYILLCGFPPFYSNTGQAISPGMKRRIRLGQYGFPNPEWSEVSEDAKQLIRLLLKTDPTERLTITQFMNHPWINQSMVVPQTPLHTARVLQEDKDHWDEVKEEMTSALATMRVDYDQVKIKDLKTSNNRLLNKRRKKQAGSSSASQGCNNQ
Chain of PKBβ (h) (protein kinase B) (P31751 120-481 limits assumed): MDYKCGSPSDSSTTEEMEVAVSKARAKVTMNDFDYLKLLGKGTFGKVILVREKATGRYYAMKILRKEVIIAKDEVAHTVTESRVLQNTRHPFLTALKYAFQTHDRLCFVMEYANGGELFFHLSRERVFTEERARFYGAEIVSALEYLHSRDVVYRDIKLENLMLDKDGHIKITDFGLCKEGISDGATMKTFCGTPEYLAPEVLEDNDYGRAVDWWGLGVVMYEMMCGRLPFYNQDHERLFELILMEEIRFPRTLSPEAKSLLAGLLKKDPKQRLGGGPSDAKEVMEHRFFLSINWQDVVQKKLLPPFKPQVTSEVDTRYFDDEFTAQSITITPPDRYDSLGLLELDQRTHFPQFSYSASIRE
Chain of CaMKI (h) (calcium/calmodulin-dependent protein kinase) (Q14012 whole entry): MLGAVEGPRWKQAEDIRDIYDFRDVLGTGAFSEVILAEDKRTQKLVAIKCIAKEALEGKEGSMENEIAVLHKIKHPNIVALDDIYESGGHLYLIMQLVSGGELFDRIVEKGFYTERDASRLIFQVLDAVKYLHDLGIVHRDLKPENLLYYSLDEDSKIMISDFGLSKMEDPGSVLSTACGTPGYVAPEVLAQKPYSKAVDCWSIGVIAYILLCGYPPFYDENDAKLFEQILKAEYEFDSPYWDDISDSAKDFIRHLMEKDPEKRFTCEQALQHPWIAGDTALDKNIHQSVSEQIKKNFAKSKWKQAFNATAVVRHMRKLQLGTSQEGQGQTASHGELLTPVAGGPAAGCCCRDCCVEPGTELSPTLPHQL

With KAANRQLGVAA the “% change in MK2 reaction velocity vs unsubstituted …, peptide at 100 µM” value (“% change in MK2 reaction velocity” for short) [1] was 52%.

B1: KAdLNRQLGVAA (peptide)
peptide: KA[dL]NRQLGVAA-NH2
modifications: N-terminus assumed
SMILES: CC(C)C[C@H](NC(=O)[C@H](CCC(N)=O)NC(=O)[C@H](CCCNC(=N)N)NC(=O)[C@H](CC(N)=O)NC(=O)[C@@H](CC(C)C)NC(=O)[C@H](C)NC(=O)[C@@H](N)CCCCN)C(=O)NCC(=O)N[C@H](C(=O)N[C@@H](C)C(=O)N[C@@H](C)C(N)=O)C(C)C
B1 was tested, and the “% change in MK2 reaction velocity” value [1] was 46%.

B2: KALNRQdLGVAA (peptide)
peptide: KALNRQ[dL]GVAA-NH2
modifications: N-terminus assumed
SMILES: CC(C)C[C@H](NC(=O)[C@H](C)NC(=O)[C@@H](N)CCCCN)C(=O)N[C@@H](CC(N)=O)C(=O)N[C@@H](CCCNC(=N)N)C(=O)N[C@@H](CCC(N)=O)C(=O)N[C@H](CC(C)C)C(=O)NCC(=O)N[C@H](C(=O)N[C@@H](C)C(=O)N[C@@H](C)C(N)=O)C(C)C
For B2, the “% change in MK2 reaction velocity” value [1] was 257%.

With WLRRIKAWLRRIKA the “% change in MK2 reaction velocity” value [1] was -83%.

With KALNRQLGAAA the “% change in MK2 reaction velocity” value [1] was 273%.

With WLRRIKAWLRRIKALNRQLGV the “% change in MK2 reaction velocity” value [1] was -132%.

For WLRRIKA [WLRRIKA (non-functional)], the “% change in MK2 reaction velocity” value [1] was 4310%.

B3: KALNRdQLGVAA (peptide)
peptide: KALNR[dQ]LGVAA-NH2
modifications: N-terminus assumed
SMILES: CC(C)C[C@H](NC(=O)[C@H](C)NC(=O)[C@@H](N)CCCCN)C(=O)N[C@@H](CC(N)=O)C(=O)N[C@@H](CCCNC(=N)N)C(=O)N[C@H](CCC(N)=O)C(=O)N[C@@H](CC(C)C)C(=O)NCC(=O)N[C@H](C(=O)N[C@@H](C)C(=O)N[C@@H](C)C(N)=O)C(C)C
With B3 the “% change in MK2 reaction velocity” value [1] was 176%.

YGRKKRRQRRR was tested, and the “% change in MK2 reaction velocity” value [1] was 44%.

B4: KALNRQLGdVAA (peptide)
peptide: KALNRQLG[dV]AA-NH2
modifications: N-terminus assumed
SMILES: CC(C)C[C@H](NC(=O)[C@H](C)NC(=O)[C@@H](N)CCCCN)C(=O)N[C@@H](CC(N)=O)C(=O)N[C@@H](CCCNC(=N)N)C(=O)N[C@@H](CCC(N)=O)C(=O)N[C@@H](CC(C)C)C(=O)NCC(=O)N[C@@H](C(=O)N[C@@H](C)C(=O)N[C@@H](C)C(N)=O)C(C)C
In the case of B4, the “% change in MK2 reaction velocity” value [1] is reported as 160%.

For KALNRQLGVA, the “% change in MK2 reaction velocity” value [1] was 0%.

With KALNAQLGVAA the “% change in MK2 reaction velocity” value [1] was 258%.

With KALNRQAGVAA the “% change in MK2 reaction velocity” value [1] was 18%.

KKKALNRQLGVAA was tested, and the “% change in MK2 reaction velocity” value [1] was -9%.

In the case of KALNRQLAVAA, the “% change in MK2 reaction velocity” value [1] is reported as -28%.

KALNRQLGVAA [Alanine-substitution peptide printed as KALNRQLGVAA (Table 1, fourth alanine row)] was tested, and the “% change in MK2 reaction velocity” value [1] was 258%.

In the case of YARAAARQARALARQLGVAA, the “Kinase Activity, peptide at 300 µM, radiometric assay” value (from here on “Kinase Activity, peptide at 300 µM”) [2] is reported as 5%, the “Kinase Activity, peptide at 300 µM” value [3] is reported as 27% and the “Kinase Activity, peptide at 300 µM” value [4] is reported as -7%. The “Kinase Activity, peptide at 300 µM” value [5] was 9%, the “Kinase Activity, peptide at 300 µM” value [6] was 86% and the “Kinase Activity, peptide at 300 µM” value [7] was 2%. The “Kinase Activity, peptide at 300 µM” value [8] was 23%, the “Kinase Activity, peptide at 300 µM” value [9] was 17% and the “Kinase Activity, peptide at 300 µM” value (SAPK2a (h) (p38α)) was 66%.

With KAFAKLAARLYRLARQLGVAA the “Kinase Activity, peptide at 100 µM, radiometric assay” value (“Kinase Activity, peptide at 100 µM” for short) [2] was 17%, the “Kinase Activity, peptide at 100 µM” value [3] was 29% and the “Kinase Activity, peptide at 100 µM” value [4] was 8%. For the same binder, the “Kinase Activity, peptide at 100 µM” value [5] was 2%, the “Kinase Activity, peptide at 100 µM” value [6] was 148% and the “Kinase Activity, peptide at 100 µM” value [7] was 0%. For the same binder, the “Kinase Activity, peptide at 100 µM” value [8] was 16%, the “Kinase Activity, peptide at 100 µM” value [9] was 28% and the “Kinase Activity, peptide at 100 µM” value (SAPK2a (h) (p38α)) was 59%.

With WLRRIKAWLRRIKALNRQLGVAA the “Kinase Activity, peptide at 30 µM, radiometric assay” value (“Kinase Activity, peptide at 30 µM” for short) [2] was 16%, the “Kinase Activity, peptide at 30 µM” value [3] was 0% and the “Kinase Activity, peptide at 30 µM” value [4] was 2%. For the same binder, the “Kinase Activity, peptide at 30 µM” value [5] was 4%, the “Kinase Activity, peptide at 30 µM” value [6] was 67% and the “Kinase Activity, peptide at 30 µM” value [7] was 9%. For the same binder, the “Kinase Activity, peptide at 30 µM” value [8] was 12%, the “Kinase Activity, peptide at 30 µM” value [9] was 18% and the “Kinase Activity, peptide at 30 µM” value (SAPK2a (h) (p38α)) was 61%.

For YARAAARQARALNRQLGVAA, the “Kinase Activity, peptide at 300 µM” value [2] was 19%, the “Kinase Activity, peptide at 300 µM” value [3] was 95% and the “Kinase Activity, peptide at 300 µM” value [4] was 10%. For the same binder, the “Kinase Activity, peptide at 300 µM” value [5] was 66%, the “Kinase Activity, peptide at 300 µM” value [6] was 81% and the “Kinase Activity, peptide at 300 µM” value [7] was 8%. For the same binder, the “Kinase Activity, peptide at 300 µM” value [8] was 68%, the “Kinase Activity, peptide at 300 µM” value [9] was 96% and the “Kinase Activity, peptide at 300 µM” value (SAPK2a (h) (p38α)) was 100%.

B5: KALdNRQLGVAA (peptide)
peptide: KAL[dN]RQLGVAA-NH2
modifications: N-terminus assumed
SMILES: CC(C)C[C@H](NC(=O)[C@H](C)NC(=O)[C@@H](N)CCCCN)C(=O)N[C@H](CC(N)=O)C(=O)N[C@@H](CCCNC(=N)N)C(=O)N[C@@H](CCC(N)=O)C(=O)N[C@@H](CC(C)C)C(=O)NCC(=O)N[C@H](C(=O)N[C@@H](C)C(=O)N[C@@H](C)C(N)=O)C(C)C
With B5 the “% change in MK2 reaction velocity” value [1] was -5%.

B6: KALNdRQLGVAA (peptide)
peptide: KALN[dR]QLGVAA-NH2
modifications: N-terminus assumed
SMILES: CC(C)C[C@H](NC(=O)[C@H](C)NC(=O)[C@@H](N)CCCCN)C(=O)N[C@@H](CC(N)=O)C(=O)N[C@H](CCCNC(=N)N)C(=O)N[C@@H](CCC(N)=O)C(=O)N[C@@H](CC(C)C)C(=O)NCC(=O)N[C@H](C(=O)N[C@@H](C)C(=O)N[C@@H](C)C(N)=O)C(C)C
B6 was tested, and the “% change in MK2 reaction velocity” value [1] was 206%.

KALARQLGVAA was tested, and the “% change in MK2 reaction velocity” value [1] was -61%.

In the case of FAKLAARLYRLARQLGVAA, the “Kinase Activity, peptide at 100 µM” value [2] is reported as 10%, the “Kinase Activity, peptide at 100 µM” value [3] is reported as 25% and the “Kinase Activity, peptide at 100 µM” value [4] is reported as 5%. The “Kinase Activity, peptide at 100 µM” value [5] was 1%, the “Kinase Activity, peptide at 100 µM” value [6] was 131% and the “Kinase Activity, peptide at 100 µM” value [7] was 0%. For the same binder, the “Kinase Activity, peptide at 100 µM” value [8] was 13%, the “Kinase Activity, peptide at 100 µM” value [9] was 16% and the “Kinase Activity, peptide at 100 µM” value (SAPK2a (h) (p38α)) was 30%.
